From the DeepSol protein solubility set

Test: soluble on expression in E. coli; label from the status in PepcDB or PDB records

Sequence | soluble on expression in E. coli
MTKPSVGINGFGRIGRLVLRAAVEKDSVNVVAVNDPFISIDYMVYLFQYDSTHGRFKGTVAHEGDYLLVAKEGKSQHKIKVYNSRDPAEIQWGASGADYVVESTGVFTTIEKANAHLKGGAKKVIISAPSADAPMFVVGVNHEKYDHANDHIISNASCTTNCLAPLAKVINDNFGIIEGLMTTVHAVTATQKTVDGPSGKLWRDGRGAGQNIIPASTGAAKAVGKVIPELNGKLTGMAFRVPTPDVSVVDLTARLEKPASLDDIKKVIKAAADGPMKGILAYTEDQVVSTDFVSDTNSSIFDAGASISLNPHFVKLVSWYDNEFGYSNRVVDLISYIATKA | soluble
MTKQQKGFVTGQPTGALNLSDILDSEELGEYHLMSAAIITGNTVDFSGLGAGPDDPFEIASITKIFTGELLRLQIERGEITESTAVGDVLGERVADSLIRDITVEELANHTSGLPRLGNVGLRPFMATFFDKNPYKDLSADRVISISTTSKLNSRGEFHYSNLGFALLGQVLARNAGLTFDQLLDRDLLAPLNLNNTKLMTPESLAQDAPQGFSTPGKQVEAWEMDGFLPAAGLRSTARDMAVFCQYLFTKGPAPFTWQSLESAPEIVWHNGESFGYSSVLFFNTATTTAIFVAADVATSVFPIGHELLMANSTRQESKLEHHHHHH | not soluble
MTKSVDTLLIPGPIILSGAVQKALDVPSLGHTSPEFVSIFQRVLKNTRAVFKSAAASKSQPFVLAGSGTLGWDIFASNFILSKAPNKNVLVVSTGTFSDRFADCLRSYGAQVDVVRPLKIGESVPLELITEKLSQNSYGAVTVTHVDTSTAVLSDLKAISQAIKQTSPETFFVVDAVCSIGCEEFEFDEWGVDFALTASQKAIGAPAGLSISLCSSRFMDYALNDSKNGHVHGYFSSLRRWTPIMENYEAGKGAYFATPPVQLINSLDVALKEILEEGLHKRWDLHREMSDWFKDSLVNGLQLTSVSRYPSNMSAHGLTAVYVADPPDVIAFLKSHGVVIAGGIHKDIGPKYIRIGHMGVTACNKNLPYMKNCFDLIKLALQRKK | soluble
MTKSYDVWWQKGQESDDDMARDHQEAWERTIEMLDTSDIKGKTILDVGCNQGGFLRKLYDTTPFKEGVGIDLARLSLEKAETLKGERPLTYYLTDKPQETNRTFDTAVSTSVLYLIEDIPQHAQDLKEVLKPGGVYYASFADLTNNPSRQFMDDTINQYGATPSQNHSLKHIVDSFVDAGFEVAVMKEPVPDVIDLTHYSDFYLSPNDYLQTLYEESFLIKASVKEGIGKLEHHHHHH | soluble
MTLAEAADAINFGLAGRVVLVTGGVRGVGAGISSVFAEQGATVITCARRAVDGQPYEFHRCDIRDEDSVKRLVGEIGERHGRLDMLVNNAGGSPYALAAEATHNFHRKIVELNVLAPLLVSQHANVLMQAQPNGGSIVNICSVSGRRPTPGTAAYGAAKAGLENLTTTLAVEWAPKVRVNAVVVGMVETERSELFYGDAESIARVAATVPLGRLARPADIGWAAAFLASDAASYISGATLEVHGGGEPPPYLGASSANK | soluble
MTLDHQIINPTLKWSQPAVPSGGPLVQHAHTTLDSDAGLTENPLTKLLAIGKEDDNAQWHLSGSILDVYSGEQGISPINMGLTSASCPSSLPMKREITETDTRALAKERQKKDNHNLIERRRRYNINYRIKELGTLIPKSNDPDMRWNKGTILKASVEYIKWLQKEQQRARELEHRQKKLEQANRRLLLRIQVFIRM | not soluble
MTLDLPELPFPLRPYGPDGRWSYADGVLTGVAGSRQDRFVPPTGESLESVSDAPRLLGAPDGDFQLIARVSVGFRGAFDAGVLYVHVGERAWAKLCLEYSPDVPTVCTVVTRGHSDDCNSFTVEGDSVWFRVSRTGRAFAFHASLDGERWTFVRLFTLGDEEETGSALVGFLAQAPTGEGCTVTYDHLEFRPAWPADLRDGSLEHHHHHH | not soluble
MTLKELYAETRSHMQKSLEVLEHNLAGLRTGRANPALLLHLKVEYYGAHVPLNQIATVTAPDPRTLVVQSWDQNALKAIEKAIRDSDLGLNPSNKGDALYINIPPLTEERRKDLVRAVRQYAEEGRVAIRNIRREALDKLKKLAKELHLSEDETKRAEAEIQKITDEFIAKADQLAEKKEQEILG | soluble
MTLLNLMIMQDYGISVCLTLTPYLQHELFSAMKSYFSKYILPVSLFTLPLSLSPSVSAFTLPEAWRAAQQHSADFQASHYQRDAVRARQQQAKAAFLPHVSANASYQRQPPSISSTRETQGWSVQVGQTLFDAAKFAQYRQSRFDTQAAEQRFDAAREELLLKVAESYFNVLLSRDTVAAHAAEKEAYAQQVRQAQALFNKGAATALDIHEAKAGYDNALAQEIAVLAEKQTYENQLNDYTDLDSKQIEAIDTANLLARYLPKLERYSLDEWQRIALSNNHEYRMQQLALQSSGQALRAAQNSRYPTVSAHVGYQNNLYTSSAQNNDYHYRGKGMSVGVQLNLPLYTGGELSGKIHEAEAQYGAAEAQLTATERHIKLAVRQAYTESGAARYQIMAQERVLESSRLKLKSTETGQQYGIRNRLEVIRARQEVAQAEQKLAQARYKFMLAYLRLVKESGLGLETVFAE | not soluble
MTLPKIGKPATRALNSQGIYTLEAVSQYTKSSLMEMHGVGPKAISILEQALFQHQLHFKTEVQSSLPFKLTGDVSCNHAPKRQQMIDFIVATAALDIELLRSLVTTEFIWSVPGHFDIYGPQILIQELSNYYNQVASLNIHSNITHGCLGSMHGIEILKTGKEIHFAHFFEFENHKKDAKLSKVTSYIVVA | not soluble
MTLSFTARWRDELPATYTALLPTPLKNARLIWYNDELAQQLAIPASLFDATNGAGVWGGETLLPGMSPVAQVYSGHQFGVWAGQLGDGRGILLGEQLLADGSTLDWHLKGAGLTPYSRMGDGRAVLRSTIRESLASEAMHYLGIPTTRALSIVTSDTPVQRETQETGAMLMRLAQSHMRFGHFEHFYYRREPEKVQQLADFAIRHYWPQWQDVAEKYALWFEEVAARTGRLIAEWQTVGFAHGVMNTDNMSILGLTIDYGPFGFLDDYDPGFIGNHSDHQGRYRFDNQPSVALWNLQRLAQTLTPFIEIDALNRALDRYQDALLTHYGQRMRQKLGFFTEQKDDNVLLNELFSLMAREGSDYTRTFRMLSHTEQQSASSPLRDTFIDRAAFDAWFDRYRARLRTEAVDDALRQQQMQRVNPAIVLRNWLAQRAIDAAEQGDMAELHRLHEVLRQPFTDRDDDYASRPPEWGKRLEVSCSSMAGDPLEHHHHHH | not soluble
MTLSSAGGSRSHRHNGGHSERDVEIRILKDKVRSLTKEKISLQKELEYYKNEITKLLSPPYIEAVVLEVIDDNRVVVKSSTGPNLIVNVAAGVDARSLKPGAIVALNNRGSTIVDVLPGRYDPLVKAMEVEERPKVFFKDVGGLEEQIREIYEAVVLPIKNPHLFRELGIDPPKGVLLHGPPGTGKTLLAKAVAGETEATFIRVVGSELVNKFIGEGARLVREIFRLAREKAPSILFIDEIDAIASKRVDIGTSGDREVQRTMLQLLAELDGFDPLDNVKVIAATNRLDLIDPAVLRPGRFDRIIEVPLPSLRGRLEILGIHTRKAKMAPDVDLEAIAKLTEGFSGADLKAVVVEAGYNAIRRGSRVITMDDMIKAVEKVKAALDKRGGGDPFIRAQQKSGDDTIATVI | soluble
MTLYPFPFTTKKQDAESMVDLFSLIKDYLVDQEDGIRHLITWFLNLVMEEEALLQVGAQRYERTDSRKASRNGYKPRTLLTKYGELELLKPQFREFPFETQVFEKYSRVEQAILSAVAESYLQGVSTRRVDKVMTALGVEGISASSVSRITKELDEKVSEFLSKPIEHEIPYLFIDATYLKVRDGLHYENKALFIVSGVRDDGFREILGARLADSEDSLFWQDLFEDLKERGLRGVKLIVSDGHKGIQKAVRESFIGSSWQMCHVHLIRQALKKVQKKKQKEVADKIKEALVDRHKYNDLIRELDKMEYKSAADTLENFQYDVMNYMQFPQSHWRKIRTTNMMERTNKEIKRRTKVVGAFPNQESVLRLVVSILIDINEDWITGNRYIVMEQ | not soluble
MTMEALLTPNNNNVPTSPVQTTYTSTQRYCSAPNVDIGESKTNLIINYLPQGMTQEEVRSLFTSIGEIESCKLVRDKVTGQSLGYGFVNYVREEDALRAVSSFNGLRLQNKTIKVSYARPSNDQIKGSNLYVSGIPKSMTLHELESIFRPFGQIITSRILSDNVTGLSKGVGFVRFDKKDEADVAIKTLNGSIPSGCSEQITVKFANNPASNNPKGLLSDLEAVQQAATTLVPLSTILGAPTLRATAGGIGPMHHAPITSKYRYSPMGAITAVSQPTATLPADYLTTSALLQMSQLNALAGLNPFATATAVPDFTASLIAHQQQQHAVAQQHAAQTASPPATNGQVAGLAAHAQLSALSASVAATLPPSDTAGYCLFVYNLSSDTDDTLLWQLFSQFGAIVNVKILRDLTQQCKGYAFVSMSNYTEAYNAMLSLNGTNLAGKTLQVVFKSSTPYRA | not soluble
MTMKCFLVILPLLVLYWIVSNRKRSGPLTNPHYKECLRKEWYTSPNVSSTEDFGSSYQISFADVQKTFKWLYLPEIDDPEIILTVMTRVDALARRNVLRKTWMTQRNRIKSIFVIGLGGDVDQKTKELVMSEAALYGDMVVTNIEDSFSKVAFKMLSMLLYGFSKVPSAKFIGKVDDDVLFYPNVLLSYMDNNTDTIHPQGSRMYGHITETRFITAGIPTGAECCEKFDSDSKCANYVTFLGGSFLMFTRQAVEGVLMASKHRKFHRIDDTMVTGYLADDVGAQRVNMTMMFMGYEPTKEPILFSSHIPLKDHEYLEQYRIQMADFKEQRLFTKYIGE | not soluble
MTMMTATQALSVNPATGQTLAAMPWANAQEIEHALSLAASGFKKWKMTSVAQRAQTLRDIGQALRAHAEEMAQCITREMGKPIKQARAEVTKSAALCDWYAEHGPAMLNPEPTLVENQQAVIEYRPLGVILAIMPWNFPLWQVLRGAVPILLAGNSYLLKHAPNVTGCAQMIARILAEAGTPAGVYGWVNANNEGVSQMINDPRIAAVTVTGSVRAGAAIGAQAGAALKKCVLELGGSDPFIVLNDADLELAVKAAVAGRYQNTGQVCAAAKRFIVEEGIAQAFTDRFVAAAAALKMGDPLVEENDLGPMARFDLRDELHQQVQASVAEGARLLLGGEKIAGEGNYYAATVLADVTPDMTAFRQELFGPVAAITVAKDAAHALALANDSEFGLSATIFTADDTLAAEMAARLECGGVFINGYSASDARVAFGGVKKSGFGRELSHFGLHEFCNVQTVWKNRV | soluble
MTMSTILFDDIRPYCDQEAPAVIERLLSSAEYRYVFGKMMPDVKPQEFEQMMLRCKSTGEFKHIFGYTAVKAVSEKTTFSLSLSGRSRIPDNGAYIFISNHRDIVLDSAFLNLLLAEIDYNMPQIAIGDNLLVKPWIEDFVRLNGSFIVRRGINMRELIAQSQRLSAYIRHTITQTKDSIWIAQREGRAKDADDRTQSSVLKMLAMSGEDGGIKSLLNLNIVPLSLSYEYDPCDYLKAREMLSKQRDPLYKKPVGEDLLNMQTGIFGYKGRVHFAIGTPLRELAESIPADAPHARQFTEAGKLIDAEIHRRYRLYPGNYVAWDLLDGCDHAGSHYSKEEKETFVNYLSAQIAKVEMQDKDEEELKRLILIMYANPARAYYAAQDPTNV | not soluble
MTNDLIQLIDSLMVNIPAGEVVLRDDRIKKEWLVQIQPFLLAKYAVTMELYDAITNSTLNNFDKNHKPVVNISWNDAIAFCNVLSKKAGLKEYYSISDGGQIVKCNLDSNGYRLPSEAEWQYACKASTTGYTYGKLHDIAWYNENSNGEIHDVGQKEPNAWGLYDMLGNVWEWCYDLYDETVYGSYRIFRGGSWAETARGCGATCRRRSHPTFHIDDLGFRLARSILEHHHHHH | soluble
